Measured values taken from the supplement of paper PMC9732359.
± gives the uncertainty stated by the source.

Assay: protein stability index of a GFP-peptide fusion (yeast GPS) (PSI 1-4); higher = more stable; sorted into four equal gates, so the index is relative within each strain
In short: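 The protein stability index combines read frequencies across sorting gates, each weighted by its gate number and then summed. To obtain those frequencies, a pooled yeast library of GFP fusions to tiled 17-residue yeast protein peptides, on a plasmid also expressing Cherry, was grown to mid-log phase in leucine-free medium. The cells were sorted into four equal gates by GFP/Cherry ratio before plasmid amplification by PCR and Illumina sequencing.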

| Sequence | protein stability index (doa10∆) | protein stability index (pdr5∆) | protein stability index (san1∆) | protein stability index (ubr1∆) |
| --- | --- | --- | --- | --- |
| NFESISARSSVHESLVT [SRB8] | 2.49 ± 0.052 | 2.1 ± 0.039 | 2.17 ± 0.062 | 2.26 ± 0.027 |
| QFEWHQNSLLTNTHPNF [SNF2] | 2.87 ± 0.063 | 2.88 ± 0.08 | 3.09 ± 0.066 | 2.99 ± 0.047 |
| LVSTLTTGISSTGAADG [SMC2] | 2.34 ± 0.097 | 2.65 ± 0.088 | 2.93 ± 0.092 | 2.69 ± 0.059 |
| LKEERAIEPETFTQLVS [PUP3] | 2.5 ± 0.057 | 2.85 ± 0.059 | 2.94 ± 0.047 | 2.62 ± 0.04 |
| SVFMPLIFIACNDEDKD [ECM29] | 2.99 ± 0.069 | 2.93 ± 0.058 | 2.09 ± 0.079 | 2.55 ± 0.04 |
| KRLGPKRANNIRKFFGL [RPS6A] | 3.52 ± 0.077 | 3.56 ± 0.071 | 3.25 ± 0.038 | 3.46 ± 0.045 |
| QIYGFEGLNQRNQVQTE [YGR119C/NUP57] | 3.16 ± 0.17 | 2.94 ± 0.22 | 3.08 ± 0.13 | 3.39 ± 0.18 |
| NSMDMVDGMAKVPIGLI [RGR1] | 3.4 ± 0.12 | 3.37 ± 0.072 | 2.99 ± 0.15 | 3.23 ± 0.073 |
| SDREMAALIASKVYYNL [RPN2] | 1.91 ± 0.06 | 1.83 ± 0.056 | 1.5 ± 0.055 | 1.7 ± 0.045 |
| SAGNDKMVKAWNLNQFQ [ASC1] | 2.46 ± 0.044 | 2.38 ± 0.054 | 2.15 ± 0.065 | 2.36 ± 0.041 |
| VCQVTKFGLLLQVSAQE [ECM29] | 2.15 ± 0.061 | 2.15 ± 0.044 | 2.62 ± 0.067 | 1.9 ± 0.04 |
| IERYPSKVTKKHGAKKV [RPL27B] | 3.26 ± 0.074 | 3.49 ± 0.095 | 3.43 ± 0.061 | 3.31 ± 0.059 |
| SVLYQLSTSAFMEIVLE [YML031W/NDC1] | 2.17 ± 0.047 | 2.07 ± 0.055 | 2.07 ± 0.068 | 2.67 ± 0.058 |
| LQRTILNRIINHMLIDS [RGR1] | 2.76 ± 0.057 | 2.4 ± 0.081 | 2.21 ± 0.093 | 1.72 ± 0.066 |
| LTWLSSFSVCKIRCFRY [IRR1] | 2.07 ± 0.053 | 1.59 ± 0.054 | 1.58 ± 0.087 | 1.61 ± 0.04 |
| ADEQKRSTDVWYEASTW [ARP7] | 2.36 ± 0.06 | 2.55 ± 0.049 | 2.78 ± 0.052 | 2.73 ± 0.048 |
| PLLLVGLDKFSNIDIRV [RPS16A] | 1.83 ± 0.073 | 1.76 ± 0.049 | 1.74 ± 0.094 | 2.11 ± 0.044 |
| KDDRFVPVRKFKGNNGV [RPN2] | 2.02 ± 0.07 | 2.77 ± 0.09 | 2.94 ± 0.069 | 2.28 ± 0.053 |
| VNGLLQVLMDINTLNGG [GAL11] | 2.98 ± 0.079 | 3.03 ± 0.077 | 3 ± 0.075 | 2.91 ± 0.036 |

| Sequence | protein stability index (doa10∆) | protein stability index (pdr5∆) | protein stability index (san1∆) | protein stability index (ubr1∆) |
| --- | --- | --- | --- | --- |
| GPIKTPVGACATSVESV [FAS2] | 1.39 ± 0.073 | 2.13 ± 0.12 | 2.15 ± 0.11 | 2.22 ± 0.077 |
| ESFTEELSNELSRLSTA [MED1] | 3.25 ± 0.066 | 3.12 ± 0.066 | 3.05 ± 0.053 | 3.21 ± 0.034 |
| FDTSIKLDIISDPESER [RPN14] | 2.7 ± 0.061 | 2.94 ± 0.082 | 2.59 ± 0.071 | 2.9 ± 0.068 |
| ESITYQKIMILQRTILN [RGR1] | 1.61 ± 0.069 | 1.69 ± 0.06 | 1.49 ± 0.099 | 2.06 ± 0.065 |
| YHQLLSDIESLEALMDI [SRB8] | 2.9 ± 0.13 | 2.84 ± 0.19 |  | 2.25 ± 0.2 |
| HWLQLAKGVYRPNGRKD [POP1] | 2.68 ± 0.06 | 3.12 ± 0.049 | 3.2 ± 0.034 | 3.15 ± 0.049 |
| TQAKKLYHHTTKTILSG [SRP72] | 3.17 ± 0.069 | 2.86 ± 0.051 | 2.49 ± 0.098 | 3.26 ± 0.046 |
| GAASNRTKFVRSLVREI [RPL36A] | 3.22 ± 0.27 | 2.59 ± 0.25 | 3.02 ± 0.13 | 3.25 ± 0.12 |
| EAESQLRAAQQQWGNDF [FAS2] | 3.12 ± 0.072 | 3.35 ± 0.063 | 3.07 ± 0.072 | 3.23 ± 0.044 |
| LLDEEAEQSFDQQSPWL [RPO21] | 3.27 ± 0.073 | 3.25 ± 0.065 | 3.24 ± 0.045 | 3.08 ± 0.048 |
| PLINLALIDTEFANFEL [YML103C/NUP188] | 2.71 ± 0.083 | 2.72 ± 0.071 | 2.5 ± 0.089 | 2.95 ± 0.073 |
| RKNDNANDHDESIDVDM [SMC3] | 2.83 ± 0.24 | 2.72 ± 0.23 | 3.32 ± 0.11 | 3.19 ± 0.094 |
| EMAEKIDFTLLNRLLRL [PRP8] | 2.72 ± 0.058 | 2.93 ± 0.058 | 2.57 ± 0.054 | 2.37 ± 0.049 |
| KVEKGVNIEPFNIDDEI [LIN1] | 3.52 ± 0.14 | 3 ± 0.21 | 3.45 ± 0.14 | 3.49 ± 0.076 |
| ELPLLSPERFATLGIDP [RPT1] | 2.41 ± 0.13 | 2.75 ± 0.18 | 3.27 ± 0.16 | 2.52 ± 0.19 |
| IPVNKRRGAHGSELSSK [SIR3] | 3 ± 0.15 | 3.03 ± 0.15 | 3.11 ± 0.22 | 2.96 ± 0.19 |
| YVDTATAKRKSRKRKPK [IRR1] | 3.17 ± 0.1 | 3.32 ± 0.1 | 3.14 ± 0.16 | 3.12 ± 0.066 |
| VDIKGEDLHEKNDSAEV [NUT1] | 3.54 ± 0.12 | 3.37 ± 0.2 | 2.93 ± 0.19 | 3.55 ± 0.12 |
| SLPHFPKNSKTPQSKGF [RPO31] | 2.94 ± 0.23 | 3.08 ± 0.22 | 2.67 ± 0.18 | 2.98 ± 0.21 |
